Results: US20240287138A1 (Merck Sharp & Dohme, published 2024)
Bridge positions count the residues as written; N and C are the ends. Square brackets hold non-standard residues; d marks the D form. Primed or numbered codes have the meaning given here. Trp(βS-Me,7-OMe) = COc1cccc2c([C@H](C)[C@H](N)C(=O)O)c[nH]c12; Phe(2-F,4-COOH) = N[C@@H](Cc1ccc(C(=O)O)cc1F)C(=O)O; Trp(7-CN) = N#Cc1cccc2c(C[C@H](N)C(=O)O)c[nH]c12; Trp(7-Cl) = N[C@@H](Cc1c[nH]c2c(Cl)cccc12)C(=O)O; Phe(3-COOH) = N[C@@H](Cc1cccc(C(=O)O)c1)C(=O)O; Phe(4-CONH2) = NC(=O)c1ccc(C[C@H](N)C(=O)O)cc1; Phe(4-COOH) = N[C@@H](Cc1ccc(C(=O)O)cc1)C(=O)O; Trp(7-aza) = N[C@@H](Cc1c[nH]c2ncccc12)C(=O)O; Phe(4-CH2NH2) = NCc1ccc(C[C@H](N)C(=O)O)cc1; 3Pal = N[C@@H](Cc1cccnc1)C(=O)O; 4Pal = N[C@@H](Cc1ccncc1)C(=O)O; NMeE = CN[C@@H](CCC(=O)O)C(=O)O; dHyp = O=C(O)[C@H]1C[C@H](O)CN1; dNMeE = CN[C@H](CCC(=O)O)C(=O)O; d(αMeP) = C[C@]1(C(=O)O)CCCN1; Phe4AcPip = not defined here; Pipt5OH = not defined here; αMeS = C[C@](N)(CO)C(=O)O; Nle = CCCC[C@H](N)C(=O)O; Pip2c = not defined here; TZAla = not defined here; cAcBu = not defined here; Ahp′ = not defined here; Pip′ = not defined here; MO2 = not defined here; Qdm = not defined here; Sar = CNCC(=O)O

Molecular target: T1, TNFR1 on THP-1 Lucia NF-kB reporter cells (UniProt P19438 30-455, limits assumed)
T1 sequence (looked up): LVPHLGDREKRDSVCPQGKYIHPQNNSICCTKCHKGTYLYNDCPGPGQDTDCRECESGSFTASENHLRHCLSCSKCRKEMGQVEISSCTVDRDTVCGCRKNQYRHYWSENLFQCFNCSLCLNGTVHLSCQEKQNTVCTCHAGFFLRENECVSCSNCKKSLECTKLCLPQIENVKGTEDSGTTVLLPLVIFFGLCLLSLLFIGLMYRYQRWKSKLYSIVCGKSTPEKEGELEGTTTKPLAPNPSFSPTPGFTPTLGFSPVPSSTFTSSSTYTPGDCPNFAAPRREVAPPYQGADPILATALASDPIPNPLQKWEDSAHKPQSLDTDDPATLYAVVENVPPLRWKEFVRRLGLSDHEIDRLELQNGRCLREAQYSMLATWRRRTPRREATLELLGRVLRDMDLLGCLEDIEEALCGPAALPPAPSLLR
Test: cell-based or functional assay

{CH2CO}-[Nle][4Pal][Prot4NH2][Trp(7-aza)][NMeE]N[4Pal][Trp(7-Cl)][αMeS][Phe(4-COOH)]Y[Sar][Trp(βS-Me,7-OMe)]C-NH2 (thioether N-14) [SEQ ID NO. 125]
THP-1 IC50: 4.1 nM

B1: SEQ ID NO. 126 (peptide)
peptide: cyclo([bhcLeu][Nle][4Pal][Pipt5OH]W[NMeE]N[4Pal][Trp(7-Cl)][αMeS][Phe(4-CONH2)][TyrOcm][Sar][Trp(βS-Me,7-OMe)])
modifications: reading uncertain; also: printed as cyclo(bhcLeu-Nle-4Pal-Pipt5OH-W-NMeE-N-4Pal-Trp7Cl-aMeS-Phe4CONH2-TyrOcm-Sar-SbMeW7OMe)
THP-1 IC50: 0.8 nM

cyclo([bhcLeu][Nle][4Pal][Pipt5OH][Trp(7-aza)][dNMeE]N[F4SO2NH2][Trp(7-CN)][αMeS][Phe(4-CONH2)][Phe(4-COOH)][Sar][Trp(βS-Me,7-OMe)]) (reading uncertain) [SEQ ID NO. 133]
THP-1 IC50: 1.4 nM

B2: SEQ ID NO. 137 (peptide)
peptide: cyclo([bhcLeu][hL][4Pal][Pip2c]W[NMeE]N[4Pal][Trp(7-Cl)][αMeS][Phe(4-COOH)]Y[Sar][Trp(βS-Me,7-OMe)])
modifications: reading uncertain; also: printed as cyclo(bhcLeu-hL-4Pal-Pip2c-W-NMeE-N-4Pal-Trp7Cl-aMeS-Phe4COOH-Y-Sar-SbMeW7OMe)
THP-1 IC50: 1.3 nM

B3: SEQ ID NO. 138 (peptide)
peptide: cyclo([bhcLeu][Nle][4Pal][Pip2c]W[NMeE]N[TZAla][Trp(7-Cl)][αMeS][Phe(4-COOH)]Y[Sar][Trp(βS-Me,7-OMe)])
modifications: reading uncertain; also: printed as cyclo(bhcLeu-Nle-4Pal-Pip2c-W-NMeE-N-TZAla-Trp7Cl-aMeS-Phe4COOH-Y-Sar-SbMeW7OMe)
THP-1 IC50: 2 nM

B4: SEQ ID NO. 142 (peptide)
peptide: cyclo([bhcLeu][SerOEt][4Pal][Pipt5OH]W[dHyp]N[4Pal][Trp(7-Cl)][αMeS][Phe(4-CONH2)][Phe(4-COOH)][Sar][Trp(βS-Me,7-OMe)])
modifications: reading uncertain; also: printed as cyclo(bhcLeu-SerOEt-4Pal-Pipt5OH-W-dProt4OH-N-4Pal-Trp7Cl-aMeS-Phe4CONH2-Phe4COOH-Sar-SbMeW7OMe)
THP-1 IC50: 1.1 nM

B5: SEQ ID NO. 24 (peptide)
peptide: cyclo([bhcLeu][Nle][4Pal][Pip2c]W[NMeE]N[4Pal][Trp(7-Cl)][αMeS][Phe(4-COOH)][Tyr3OMe][Sar][Trp(βS-Me,7-OMe)])
modifications: reading uncertain; also: printed as cyclo(bhcLeu-Nle-4Pal-Pip2c-W-NMeE-N-4Pal-Trp7Cl-aMeS-Phe4COOH-Tyr3OMe-Sar-SbMeW7OMe)
THP-1 IC50: 0.7 nM

B6: SEQ ID NO. 25 (peptide)
peptide: cyclo([bhcLeu][Nle][4Pal][Pipt5OH]W[dHyp][SbOHAsn][4Pal][Trp(7-CN)][αMeS][Phe(4-CONH2)][Phe(4-COOH)][Sar][Trp(βS-Me,7-OMe)])
modifications: reading uncertain; also: printed as cyclo(bhcLeu-Nle-4Pal-Pipt5OH-W-dProt4OH-SbOHAsn-4Pal-Trp7CN-aMeS-Phe4CONH2-Phe4COOH-Sar-SbMeW7OMe)
THP-1 IC50: 0.8 nM

B7: SEQ ID NO. 28 (peptide)
peptide: cyclo([bhcLeu][Nle][4Pal][Pip2c]W[NMeE]N[4Pal][Trp(7-Cl)][αMeS][Phe(3-COOH)]Y[Sar][Trp(βS-Me,7-OMe)])
modifications: reading uncertain; also: printed as cyclo(bhcLeu-Nle-4Pal-Pip2c-W-NMeE-N-4Pal-Trp7Cl-aMeS-Phe3COOH-Y-Sar-SbMeW7OMe)
THP-1 IC50: 1.6 nM

B8: SEQ ID NO. 40 (peptide)
peptide: cyclo([bhcLeu][Nle][3Pal][Pip2c]W[NMeE]N[4Pal][Trp(7-Cl)][αMeS][Phe(4-COOH)]Y[Sar][Trp(βS-Me,7-OMe)])
modifications: reading uncertain; also: printed as cyclo(bhcLeu-Nle-3Pal-Pip2c-W-NMeE-N-4Pal-Trp7Cl-aMeS-Phe4COOH-Y-Sar-SbMeW7OMe)
THP-1 IC50: 1.5 nM

cyclo([bhcLeu][LysMe3][4Pal][Pip′]W[NMeE]N[4Pal][Trp(7-Cl)][αMeS][Phe(4-COOH)]Y[Sar][Trp(βS-Me,7-OMe)]) [SEQ ID NO. 47]
THP-1 IC50: 1.9 nM

B9: SEQ ID NO. 52 (peptide)
peptide: {CH2CO}-[Nle][4Pal][Pip2c][TrpCH2COOH][NMeE]N[Phe(4-COOH)][Trp(7-Cl)][αMeS][Phe(4-CONH2)]Y[Sar][Trp(βS-Me,7-OMe)]C-NH2
modifications: thioether N-14; reading uncertain; also: printed as cyclo(ClAc-Nle-4Pal-Pip2c-TrpCH2COOH-NMeE-N-Phe4COOH-Trp7Cl-aMeS-Phe4CONH2-Y-Sar-SbMeW7OMe-C)-NH2
THP-1 IC50: 3.9 nM

B10: SEQ ID NO. 55 (peptide)
peptide: cyclo([bhcLeu][Ahp′][SbMe4Pal]DW[dHyp]N[Phe(4-COOH)][Trp(7-CN)][αMeS][Phe(4-CONH2)][Phe(4-CONH2)][Sar][Trp(βS-Me,7-OMe)])
modifications: reading uncertain; also: printed as cyclo(bhcLeu-Ahp-SbMe4Pal-D-W-dProt4OH-N-Phe4COOH-Trp7CN-aMeS-Phe4CONH2-Phe4CONH2-Sar-SbMeW7OMe)
THP-1 IC50: 1.3 nM

{CH2CO}-[Nle][4Pal][Pip′][Trp(7-aza)][NMeE]N[Phe(4-CH2NH2)][Trp(7-Cl)][αMeS][Phe(4-CH2NH2)]Y[Sar][Trp(βS-Me,7-OMe)]C-NH2 (thioether N-14) [SEQ ID NO. 58]
THP-1 IC50: 16.2 nM

B11: SEQ ID NO. 63 (peptide)
peptide: cyclo([bhcLeu][Nle][4Pal][Pip2c]W[NMeE]N[4Pal][Trp(7-Cl)][αMeS][Phe(4-COOH)][Phe4AcPip][Sar][Trp(βS-Me,7-OMe)])
modifications: reading uncertain; also: printed as cyclo(bhcLeu-Nle-4Pal-Pip2c-W-NMeE-N-4Pal-Trp7Cl-aMeS-Phe4COOH-Phe4AcPip-Sar-SbMeW7OMe)
THP-1 IC50: 1.2 nM

B12: SEQ ID NO. 64 (peptide)
peptide: cyclo([bhcLeu][Nle][4Pal][Pip2c]W[NMeE][MO2][4Pal][Trp(7-Cl)][αMeS][Phe(4-COOH)]Y[Sar][Trp(βS-Me,7-OMe)])
modifications: reading uncertain; also: printed as cyclo(bhcLeu-Nle-4Pal-Pip2c-W-NMeE-MO2-4Pal-Trp7Cl-aMeS-Phe4COOH-Y-Sar-SbMeW7OMe)
THP-1 IC50: 1.1 nM

B13: SEQ ID NO. 65 (peptide)
peptide: {CH2CO}-[Nle][PyrimAla][Pip2c][Trp(7-aza)][NMeE]N[4Pal][Trp(7-Cl)][αMeS][Phe(4-COOH)]Y[Sar][Trp(βS-Me,7-OMe)]C-NH2
modifications: thioether N-14; reading uncertain; also: printed as cyclo(ClAc-Nle-PyrimAla-Pip2c-Trp7az-NMeE-N-4Pal-Trp7Cl-aMeS-Phe4COOH-Y-Sar-SbMeW7OMe-C)-NH2
THP-1 IC50: 4 nM

B14: SEQ ID NO. 69 (peptide)
peptide: cyclo([cAcBu][Nle][4Pal][Pip2c]W[NMeE]N[4Pal][Trp(7-Cl)][αMeS][Phe(4-COOH)]Y[Sar][Trp(βS-Me,7-OMe)])
modifications: reading uncertain; also: printed as cyclo(cAcBu-Nle-4Pal-Pip2c-W-NMeE-N-4Pal-Trp7Cl-aMeS-Phe4COOH-Y-Sar-SbMeW7OMe)
THP-1 IC50: 1.6 nM

{CH2CO}-[Nle][4Pal][Pipc4OH]W[NMeE]N[4Pal][Trp(7-Cl)][αMeS][Phe(4-COOH)]Y[Sar][Trp(βS-Me,7-OMe)]C-NH2 (thioether N-14 (inferred)) [SEQ ID NO. 71]
THP-1 IC50: 2.8 nM

B15: SEQ ID NO. 7 (peptide)
peptide: cyclo([bhcLeu][Nle][4Pal][Pip2c]W[NMeE]N[4Pal][Trp(7-Cl)][αMeS][Phe(2-F,4-COOH)]Y[Sar][Trp(βS-Me,7-OMe)])
modifications: reading uncertain; also: printed as cyclo(bhcLeu-Nle-4Pal-Pip2c-W-NMeE-N-4Pal-Trp7Cl-aMeS-Phe2F4COOH-Y-Sar-SbMeW7OMe)
THP-1 IC50: 1.6 nM

B16: SEQ ID NO. 75 (peptide)
peptide: {CH2CO}-[Nle][4Pal][Pip2c]W[NMeE][Qdm][4Pal][Trp(7-Cl)][αMeS][Phe(4-COOH)]Y[Sar][Trp(βS-Me,7-OMe)]C-NH2
modifications: thioether N-14 (inferred); reading uncertain; also: printed as cyclo(ClAc-Nle-4Pal-Pip2c-W-NMeE-Qdm-4Pal-Trp7Cl-aMeS-Phe4COOH-Y-Sar-SbMeW7OMe-C)-NH2
THP-1 IC50: 6.1 nM

B17: SEQ ID NO. 76 (peptide)
peptide: {CH2CO}-[Nle][4Pal][Pip2c]W[d(αMeP)]N[4Pal][Trp(7-Cl)][αMeS][Phe(4-COOH)]Y[Sar][Trp(βS-Me,7-OMe)]C-NH2
modifications: thioether N-14 (inferred); reading uncertain; also: printed as cyclo(ClAc-Nle-4Pal-Pip2c-W-daMeP-N-4Pal-Trp7Cl-aMeS-Phe4COOH-Y-Sar-SbMeW7OMe-C)-NH2
THP-1 IC50: 4.7 nM
